B1: GDNF: recombinant human mature GDNF obtained from Genentech (protein, UniProt P39905 78-211, looked up)
Glial cell line-derived …: SPDKQMAVLPRRERNRQAAAANPENSRGKGRRGQRGKNRGCVLTAIHLNVTDLGLGYETKEELIFRYCSGSCDAAETTYDKILKNLSRNRRLVSDKVGQACCRPIAFDDDLSFLDDNLVYHILRKHSAKRCGCI

Legend:
[1] = tested on: CHP134 neuroblastoma cell line; experiment: Responsiveness of a neuroblastoma cell line that does not express RET (CHP134); assay type: cell-based; details: data not shown
[2] = tested on: NLF cells transformed with GFRα3; experiment: Ga14-Elk/Ga14-Luc reporter in NLF neuroblastoma cells transformed with GFRα3; assay type: cell-based; details: factor for 24 hours, low-serum medium, FIG. 10B
Experimental: (§1) Thus, to directly test which receptor combinations can form functional receptors for artemin, expression plasmids for the individual GFRA coreceptors together with the Ga14-Elk/Ga14-Luc reporter system were transiently transformed into fibroblasts that stably express RET. […]
(§2) NLF neuroblastoma cells, which naturally express GFRα2/RET (Tansey et al., submitted), or the RET-3T3 cells were plated at 85,000 cells/well in 12-well plates, and cotransfected with the reporter plasmids Ga14-Luc and CMV-Ga14-Elk (250 ng/well and 50 ng/well, respectively), CMV-lacZ (50 ng/well) for transfection normalization, one of the CMV-GFRA expression plasmids (500 ng/well), and pBluescript (650 ng/well) as carrier for a total of 1.5 μg DNA/well using the Superfect reagent (Qiagen) according to the manufacturer's instructions. […] Measurement of luciferase and β-galactosidase activity was measured using a luminometer and performed as described (Svaren et al., EMBO J 17:6010-6019, 1998). The average luciferase activity of duplicate samples was normalized to β-galactosidase activity of the cotransformed lacZ reporter, and fold activation was calculated by dividing the normalized activity in factor-treated cells by that in the no treatment control.

GFRα1-Fc = experiment: Direct binding of soluble GFRα1-Fc receptor body to plate-coated ligand; details: ligand coated at 325 ng/ml, absence of RET, FIG. 9C
Experimental: To investigate which if any of the known coreceptor(s) artemin can utilize to activate RET, its ability to directly bind to soluble Fc-fusion forms of GFRα1, GFRα2, or GFRα3 was assessed. GFRα1-Fc, GFRα2-Fc and GFRα3-Fc fusion proteins were obtained from R&D Systems. Binding assays were performed similarly to assays previously described (Sanicola et al., Proc. Natl. Acad. Sci., USA 94:6238-6243, 1997). Recombinant GDNF, neurturin, artemin, persephin, or purified bovine serum albumin (BSA; Pierce) were coated to Nunc-Immuno MaxiSorp microtiter plates at 325 ng/ml in TBS (10 mM Tris-HCl pH 7.5, 150 mM NaCl) for 1 hour at 25° C. Plates were washed (3× in TBS/0.03% Tween-20), and then blocked (blocking solution: TBS/1% BSA) for 1 hr at 25° C. Receptor bodies diluted in blocking solution were added and incubated for 2 hr at 25° C., washed 5X, then incubated with 1:10,000 dilution of HRP-conjugated anti-human Fc antibodies in blocking solution (Jackson Immunoresearch) for 45 minutes at 25° C. Finally, wells were washed 5× and the presence of HRP was assayed by addition of the chromogenic substrate 3,3, 5,5-tetramethylbenzidine for 5 min. The reaction was stopped by adding an equal volume of 0.5M H2SO4, and color was measured in a plate reader at 450 nm. Non-specific binding of receptor bodies to the plates was measured in BSA coated wells, and this binding was subtracted from all other measurements.

GFRα1/RET = target: T1, GFRα1/RET (UniProt P07949+Q62997); experiment: Ga14-Elk/Ga14-Luc reporter in RET-3T3 fibroblasts transfected with GFRα1; assay type: cell-based, rat GFRα1, human RET; details: FIG. 10A; for activation of RET signaling in cells expressing GFRα1/RET (luciferase reporter): RET-3T3, 50 ng/ml for 6-8 hours
T1 construct: expressed in transfected cells; host or cells: MG87 fibroblasts stably expressing human RET (RET-3T3), transiently transfected with the CMV-GFRα1 plasmid
T1 sequence (Q62997 25-430 limits assumed): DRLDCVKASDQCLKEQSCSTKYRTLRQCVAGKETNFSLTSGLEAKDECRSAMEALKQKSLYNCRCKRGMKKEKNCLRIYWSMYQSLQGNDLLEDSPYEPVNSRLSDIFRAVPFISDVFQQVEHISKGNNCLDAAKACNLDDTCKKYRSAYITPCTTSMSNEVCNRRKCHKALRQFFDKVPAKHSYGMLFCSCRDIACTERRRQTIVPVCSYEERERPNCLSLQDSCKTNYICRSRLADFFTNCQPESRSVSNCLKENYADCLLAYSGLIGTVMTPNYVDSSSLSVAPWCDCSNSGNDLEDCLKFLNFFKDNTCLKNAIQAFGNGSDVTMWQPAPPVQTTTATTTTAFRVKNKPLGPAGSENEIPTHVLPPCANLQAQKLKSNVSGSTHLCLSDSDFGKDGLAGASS
T1 sequence (P07949 29-1114): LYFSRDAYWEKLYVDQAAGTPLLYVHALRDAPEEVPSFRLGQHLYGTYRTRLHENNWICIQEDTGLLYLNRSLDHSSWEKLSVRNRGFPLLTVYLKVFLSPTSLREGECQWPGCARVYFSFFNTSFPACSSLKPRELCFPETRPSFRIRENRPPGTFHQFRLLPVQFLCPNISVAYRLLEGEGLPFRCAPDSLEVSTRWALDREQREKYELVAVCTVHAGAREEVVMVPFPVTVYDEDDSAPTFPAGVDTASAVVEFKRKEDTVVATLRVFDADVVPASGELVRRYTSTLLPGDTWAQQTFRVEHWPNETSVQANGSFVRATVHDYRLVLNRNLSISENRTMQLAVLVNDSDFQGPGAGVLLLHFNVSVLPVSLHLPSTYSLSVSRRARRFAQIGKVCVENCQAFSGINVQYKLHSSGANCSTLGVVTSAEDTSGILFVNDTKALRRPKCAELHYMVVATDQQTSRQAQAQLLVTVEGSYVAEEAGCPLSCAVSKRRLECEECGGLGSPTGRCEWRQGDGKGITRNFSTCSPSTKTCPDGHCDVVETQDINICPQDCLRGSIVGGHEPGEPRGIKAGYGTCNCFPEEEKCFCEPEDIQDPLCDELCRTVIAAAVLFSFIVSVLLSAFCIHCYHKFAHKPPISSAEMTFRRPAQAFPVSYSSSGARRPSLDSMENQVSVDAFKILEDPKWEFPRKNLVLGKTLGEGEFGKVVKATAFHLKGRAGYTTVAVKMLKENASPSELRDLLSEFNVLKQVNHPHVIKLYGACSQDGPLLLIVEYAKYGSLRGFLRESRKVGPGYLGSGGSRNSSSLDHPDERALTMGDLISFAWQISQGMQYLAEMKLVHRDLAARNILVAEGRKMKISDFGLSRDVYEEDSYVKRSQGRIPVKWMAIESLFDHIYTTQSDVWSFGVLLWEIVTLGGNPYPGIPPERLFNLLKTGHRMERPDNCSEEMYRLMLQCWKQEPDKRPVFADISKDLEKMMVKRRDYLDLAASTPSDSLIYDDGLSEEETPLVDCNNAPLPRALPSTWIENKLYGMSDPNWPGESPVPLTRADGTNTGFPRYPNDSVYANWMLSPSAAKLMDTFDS
Source text: Thus, to directly test which receptor combinations can form functional receptors for artemin, expression plasmids for the individual GFRA coreceptors together with the Ga14-Elk/Ga14-Luc reporter system were transiently transformed into fibroblasts that stably express RET. This system, which utilizes the ability of the Ga14-Elk fusion protein to respond to MAP kinase activity and activate transcription of the Ga14-luciferase reporter, has been used previously to monitor NGF/TrkA activation of the MAP kinase pathway in PC12 cells (Vossler et al., Cell 89:73-82, 1997; York et al., Nature 392:622-626, 1998), and GDNF/RET activation of MAP kinase in neuroblastoma cell lines (Worby et al., 1998, supra; Worby et al., J. Biol. Chem. 271:23619-23622, 1996).
Generation of the expression plasmids for rat GFRα1 and human GFRα2, as well as MG87 fibroblasts stably expressing human RET (RET-3T3), were described in detail previously (Baloh et al., 1997, supra; Creedon et al., 1997, supra). […]
as §2

GFRα2/RET = target: T2, GFRα2/RET (Homo sapiens, UniProt O00451+P07949); experiment: Ga14-Elk/Ga14-Luc reporter in RET-3T3 fibroblasts transfected with GFRα2; assay type: cell-based; details: RET-3T3, 50 ng/ml for 6-8 hours, FIG. 10A
T2 construct: expressed in transfected cells; host or cells: MG87 fibroblasts stably expressing human RET (RET-3T3), transiently transfected with the CMV-GFRα2 plasmid
T2 sequence (O00451 22-444 limits assumed): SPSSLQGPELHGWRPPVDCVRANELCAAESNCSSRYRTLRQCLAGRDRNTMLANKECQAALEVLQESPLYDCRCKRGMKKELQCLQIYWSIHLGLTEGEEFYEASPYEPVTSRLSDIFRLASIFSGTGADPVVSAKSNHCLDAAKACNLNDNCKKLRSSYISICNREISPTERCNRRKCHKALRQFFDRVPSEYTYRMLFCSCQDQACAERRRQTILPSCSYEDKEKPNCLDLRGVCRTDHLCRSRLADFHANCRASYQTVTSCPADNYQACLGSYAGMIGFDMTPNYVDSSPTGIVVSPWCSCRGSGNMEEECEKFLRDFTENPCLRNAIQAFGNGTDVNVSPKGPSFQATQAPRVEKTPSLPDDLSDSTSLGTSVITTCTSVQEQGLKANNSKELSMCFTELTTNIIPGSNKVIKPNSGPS
T2 sequence (P07949 29-1114): as the sequence (P07949 29-1114) above
Experimental: as §1, §2

| Molecule | response of CHP134 cells [1] | response of NLF cells transformed with GFRα3 (luciferase reporter) [2] | direct binding of GFRα1-Fc (GFRα1-Fc) | activation of RET signaling in cells expressing GFRα1/RET (luciferase reporter) (GFRα1/RET) | degree of RET activation in cells expressing GFRα1/RET compared with GDNF (GFRα1/RET; RET-3T3, 50 ng/ml) | activation of RET signaling in cells expressing GFRα2/RET (luciferase reporter) (GFRα2/RET) |
| --- | --- | --- | --- | --- | --- | --- |
| artemin: recombinant mature human artemin (FIG. 3A, SEQ ID NO:3) with 8-histidine tag, produced in E. coli; GDNF family neurotrophic factor | did not respond | allowed the cells to respond to artemin stimulation | not to persephin or artemin | able to activate RET in cells expressing GFRα1/RET | to a lesser degree than GDNF | not GFRα2/RET |
| B1 | did not respond | decreased the ability of the cells to respond to GDNF | able to bind to both GDNF and neurturin with similar affinity | activated RET signaling | – | activated RET signaling |

From patent US20020002269A1, “ARTEMIN, A NEUROTROPHIC FACTOR” (priority 1998, published 2002)
